Patent US8513380B2, “Peptides for binding fibrinogen and fibrin” (Georgia Tech Research Corporation, priority 2009, dated 2013)
Where no end group is shown, it is not given here.

Experiments:
fibrinogen [1] = target: T1, fibrinogen (Homo sapiens, UniProt P02675+P02679); test: Turbidity and percent clottability with PEGylated knob peptides; format: biochemical; conditions: 1:1 molar ratio; for percentage of clottable protein: no-peptide ˜95%
T1 sequence (P02679 27-433 limits assumed): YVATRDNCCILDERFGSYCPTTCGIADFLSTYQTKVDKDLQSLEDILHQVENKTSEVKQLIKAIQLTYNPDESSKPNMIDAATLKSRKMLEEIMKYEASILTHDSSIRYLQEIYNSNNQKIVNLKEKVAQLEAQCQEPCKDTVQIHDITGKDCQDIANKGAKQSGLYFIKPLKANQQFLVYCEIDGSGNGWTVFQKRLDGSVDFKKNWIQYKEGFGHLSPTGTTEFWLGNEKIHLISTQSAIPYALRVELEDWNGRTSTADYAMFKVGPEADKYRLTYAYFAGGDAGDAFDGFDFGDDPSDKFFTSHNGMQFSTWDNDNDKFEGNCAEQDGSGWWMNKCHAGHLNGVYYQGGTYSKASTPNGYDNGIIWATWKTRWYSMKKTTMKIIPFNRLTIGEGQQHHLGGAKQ
T1 sequence (P02675 31-491): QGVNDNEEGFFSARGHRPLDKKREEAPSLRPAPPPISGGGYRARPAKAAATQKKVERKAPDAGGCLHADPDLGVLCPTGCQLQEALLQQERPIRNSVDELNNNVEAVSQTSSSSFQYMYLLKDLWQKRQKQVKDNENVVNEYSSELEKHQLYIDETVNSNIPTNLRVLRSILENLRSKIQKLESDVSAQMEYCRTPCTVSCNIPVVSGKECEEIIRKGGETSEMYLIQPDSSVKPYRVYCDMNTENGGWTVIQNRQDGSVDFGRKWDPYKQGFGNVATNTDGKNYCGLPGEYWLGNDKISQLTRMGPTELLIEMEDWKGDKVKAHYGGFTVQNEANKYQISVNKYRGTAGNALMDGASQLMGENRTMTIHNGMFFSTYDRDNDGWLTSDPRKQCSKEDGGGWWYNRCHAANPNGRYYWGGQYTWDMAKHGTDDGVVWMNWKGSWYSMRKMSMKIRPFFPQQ
T1 sequence (P02671 20-629 partner limits assumed): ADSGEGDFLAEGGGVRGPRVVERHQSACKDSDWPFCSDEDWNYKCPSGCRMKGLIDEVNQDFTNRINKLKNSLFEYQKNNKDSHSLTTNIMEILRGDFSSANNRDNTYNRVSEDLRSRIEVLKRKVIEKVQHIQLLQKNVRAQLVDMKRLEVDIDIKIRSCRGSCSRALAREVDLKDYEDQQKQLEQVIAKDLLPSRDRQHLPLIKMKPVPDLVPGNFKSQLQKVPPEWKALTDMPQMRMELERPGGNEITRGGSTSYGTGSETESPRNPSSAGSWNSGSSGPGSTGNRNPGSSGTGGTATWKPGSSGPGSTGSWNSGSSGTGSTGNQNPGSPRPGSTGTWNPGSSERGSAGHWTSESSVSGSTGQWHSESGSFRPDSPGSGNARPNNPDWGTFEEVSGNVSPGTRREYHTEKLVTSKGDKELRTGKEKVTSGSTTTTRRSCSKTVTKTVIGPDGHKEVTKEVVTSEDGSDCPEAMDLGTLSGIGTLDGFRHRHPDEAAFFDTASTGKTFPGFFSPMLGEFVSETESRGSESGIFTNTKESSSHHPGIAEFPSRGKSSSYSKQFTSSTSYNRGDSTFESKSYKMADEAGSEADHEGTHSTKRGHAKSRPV
Description: Polymerization rate (turbidity curves), percent clottable protein, fiber structure (SEM), and viscoelastic properties of fibrin polymerized in the presence or absence of PEGylated-GPRPFPAC (5 kDa linear PEG chain, SED ID NO:53) at a 1:1 molar ratio were evaluated.
The turbidity curves upon initiating thrombin-activated polymerization and the amount of soluble protein remaining in the clot liquor after polymerization (percent clottable protein) were evaluated. All assays were performed with 1 mg/ml fibrinogen, 1 U/ml thrombin, 1 U/mL factor XIIIa, and 5 mM CaCl2; all PEG conjugates were tested at a 1:1 molar ratio.

fibrinogen [2] = target: T2, fibrinogen (Homo sapiens, UniProt P02675+P02679); test: ELISA specificity assay: soluble Gxxx tetrapeptides competing with immobilized GPRP-FnIII9-10-C; format: binding; conditions: tetrapeptide in 10^2- to 10^4-fold molar excess; one-hour pre-incubation
T2 sequence (P02679 27-437 isoform P02679-2 limits assumed): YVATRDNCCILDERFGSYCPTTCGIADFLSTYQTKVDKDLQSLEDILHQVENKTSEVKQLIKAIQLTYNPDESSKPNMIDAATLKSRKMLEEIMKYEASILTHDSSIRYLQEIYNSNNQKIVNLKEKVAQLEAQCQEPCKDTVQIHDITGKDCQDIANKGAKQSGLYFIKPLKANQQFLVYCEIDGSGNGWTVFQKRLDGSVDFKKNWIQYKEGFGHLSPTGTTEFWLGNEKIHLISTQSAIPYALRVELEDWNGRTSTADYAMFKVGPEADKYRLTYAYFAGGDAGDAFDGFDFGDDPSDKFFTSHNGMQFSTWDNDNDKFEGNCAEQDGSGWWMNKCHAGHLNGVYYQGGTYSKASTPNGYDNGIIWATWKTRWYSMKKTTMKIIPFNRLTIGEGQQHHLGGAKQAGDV
T2 sequence (P02675 31-491): T1 sequence (P02675 31-491)
T2 sequence (P02671 20-629 partner limits assumed): T1 sequence (P02671 20-629 partner limits assumed)
Description: A modified ELISA technique was used to establish the affinity of fibrinogen for the various Gxxx-FnIII9-10-C (SEQ ID NO:20) proteins covalently immobilized on maleimide-activated plates via their C-terminal cysteines. Sulfhydryl-containing proteins/peptides were added to pre-blocked maleimide-activated 96-well plates (Pierce, Thermo Scientific, Rockford, Ill.) at 10 μg/mL in conjugation buffer (CB) comprising 150 mM NaCl, 100 mM phosphate, 10 mM EDTA, pH 7.2, with attachment occurring via maleimide-sulfhydryl (thioether) linkages. TCEP (1 mM) was added to maintain sulfhydryl groups in the reduced form. Following, unreacted maleimide groups were quenched with 20 μg/mL cysteine in CB. Human fibrinogen (25 μg/mL) was incubated with the substrates and unbound protein removed by washing. Bound fibrinogen was detected using HRP-conjugated goat anti-fibrinogen antibody (MP Biomedicals #55239) and 1-Step™ Ultra TMB-ELISA (Pierce). The TMB reaction was quenched with 1 M H2SO4 before measuring the Abs450 nm using the SPECTRAMAX® M2 (Molecular Devices, Sunnyvale, Calif.). All intervening wash steps were conducted using washing buffer (WB) comprising 150 mM NaCl, 100 mM phosphate, 0.05% Tween-20, pH 7.2; all binding steps were conducted using binding buffer (BB) comprising PBS+1% BSA. For basic affinity assays, the concentration of the fusion proteins was varied. For specificity assays, varying concentrations of Gxxx (SEQ ID NO:20) tetrapeptides (Genscript, Piscataway, N.J.) were added to the fibrinogen solution during incubation with the covalently immobilized proteins.
The tetrapeptides GPRV (SEQ ID NO:2) and GHRP (SEQ ID NO:3) are also known to bind fibrinogen via knob:pocket interactions, albeit with reduced affinities (Laudano A P, et al. Biochemistry 1980, 19(5):1013-1019).

fibrin = fibrin (Homo sapiens, UniProt P02675+P02679); conditions: cited from earlier work

Row | percentage of clottable protein (fibrinogen [1]) | Substance | maximum absorbance turbidity value (fibrinogen [1]; 1 mg/ml fibrinogen, 1 U/ml thrombin, 1 U/mL factor XIIIa) | competition with immobilized GPRP-FnIII9-10-C for binding to fibrinogen (fibrinogen [2]) | excess necessary to completely inhibit fibrin assembly (fibrin)
1 | 92% | GPRPFPAC-PEG: GPRPFPAC conjugated to 5 kDa linear PEG chain (also: conjugated to 5 kDa linear PEG, site not given here; listed as Homo sapiens) | lower maximum absorbance turbidity value |  | 
2 |  | GPRP |  | dose-dependent inhibition of fibrinogen binding | ≥ 100 -fold excess
3 | did not change | GPSPFPAC-PEG: control peptide conjugate, GPSPFPAC (SEQ ID NO:18) with PEG (also: PEG conjugate, site not given here; listed as Homo sapiens) [reference compound] |  |  | 
